Assays:
[1] = biological target: T1, CD14 on cells expressing CD14 (monocyte lineage/NK cells) (UniProt P08571 20-345, limits assumed); assay: flow cytometry on PBMC from 6 donors
T1 construct: whole, on cells
T1 sequence (looked up): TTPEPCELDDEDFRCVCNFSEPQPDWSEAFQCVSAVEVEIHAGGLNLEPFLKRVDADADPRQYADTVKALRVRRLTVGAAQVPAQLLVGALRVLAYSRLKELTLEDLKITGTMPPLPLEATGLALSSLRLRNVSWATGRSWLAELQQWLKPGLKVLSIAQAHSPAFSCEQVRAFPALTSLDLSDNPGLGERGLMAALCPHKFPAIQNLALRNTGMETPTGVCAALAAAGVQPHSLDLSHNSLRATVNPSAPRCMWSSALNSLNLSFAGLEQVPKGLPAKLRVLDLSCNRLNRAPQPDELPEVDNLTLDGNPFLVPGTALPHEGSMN

[2] = biological target: human αβ T cell receptor (αβ TCR) on T cells (human); assay: cell-based or functional assay

B1: TOL101 murine anti-αβ TCR monoclonal IgM antibody produced by the hybridoma TOL101 MCB (ATCC PTA-13293) (antibody)
heavy: QVQLQQSGAELARPGASVKMSCKASGYTFTSYTMHWVKQRPGQGLEWIGYINPSSGYTNYNQKFKDKATLTADKSSSTAYMQLSSLTSEDSAVYYCARWRDAYYAMDYWGQGTSVTVSSESQSFPNVFPLVSCESPLSDKNLVAMGCLARDFLPSTISFTWNYQNNTEVIQGIRTFPTLRTGGKYLATSQVLLSPKSILEGSDEYLVCKIHYGGKNRDLHVPIPAVAEMNPNVNVFVPPRDGFSGPAPRKSKLICEATNFTPKPITVSWLKDGKLVESGFTTDPVTIENKGSTPQTYKVISTLTISEIDWLNLNVYTCRVDHRGLTFLKNVSSTCAASPSTDILTFTIPPSFADIFLSKSANLTCLVSNLATYETLNISWASQSGEPLETKIKIMESHPNGTFSAKGVASVCVEDWNNRKEFVCTVTHRDLPSPQKKFISKPNEVHKHPPAVYLLPPAREQLNLRESATVTCLVKGFSPADISVQWLQRGQLLPQEKYVTSAPMPEPGAPGFYFTHSILTVTEEEWNSGETYTCVVGHEALPHLVTERTVDKSTGKPTLYNVSLIMSDTGGTCY
light: QIVLTQSPAIMSASPGEKVTMTCSASSSVSYMHWYQQKSGTSPKRWIYDTSKLASGVPARFSGSGSGTSYSLTISSMEAEDAATYYCQQWSSNPFTFGSGTKLEIKRADAAPTVSIFPPSSEQLTSGGASVVCFLNNFYPKDINVKWKIDGSERQNGVLNSWTDQDSKDSTYSMSSTLTLTKDEYERHNSYTCEATHKTSTSPIVKSFNRNEC
chain: GDDEATILADNKCMCTRVTSRIIPSTEDPNEDIVERNIRIVVPLNNRENISDPTSPLRRNFVYHLSDVCKKCDPVEVELEDQVVTATQSNICNEDDGVPETCYMYDRNKCYTTMVPLRYHGETKMVQAALTPDSCYPD
notes: Murine IgM kappa (IgMκ); It was detected with anti-mouse IgM in flow cytometry; also called TOL101 antibody; TOL101 mAb
In the case of B1, the binding result [1] is reported as “no binding” and the calcium flux in CD4 T cells (Fluo-4) (% of CD4 T cells) [2] is reported as 15.
